B1: MKP7 catalytic domain (MKP7-CD, residues 156-301) [human] / GST-JNK1 (wild type) [human] (parent complex)
chain 1: NIGPTRILPNLYLGCQRDVLNKELMQQNGIGYVLNASNTCPKPDFIPESHFLRVPVNDSFCEKILPWLDKSVDFIEKAKASNGCVLVHCLAGISRSATIAIAYIMKRMDMSLDEAYRFVKEKRPTISPNFNFLGQLLDYEKKIKNQ
chain 2: MSRSKRDNNFYSVEIGDSTFTVLKRYQNLKPIGSGAQGIVCAAYDAILERNVAIKKLSRPFQNQTHAKRAYRELVLMKCVNHKNIIGLLNVFTPQKSLEEFQDVYIVMELMDANLCQVIQMELDHERMSYLLYQMLCGIKHLHSAGIIHRDLKPSNIVVKSDCTLKILDFGLARTAGTSFMMTPYVVTRYYRAPEVILGMGYKENVDIWSVGCIMGEMIKGGVLFPGTDHIDQWNKVIEQLGTPCPEFMKKLQPTVRTYVENRPKYAGYSFEKLFPDVLFPADSEHNKLKASQARDLLSKMLVIDASKRISVDEALQHPYINVWYDPSEAEAPPPKIPDKQLDEREHTIEEWKELIYKEVMDLLE
B2: MKP5 catalytic domain (MKP5-CD, residues 320-467) [human] / GST-JNK1 (wild type) [human] (parent complex)
chain 1: AELTPILPFLFLGNEQDAQDLDTMQRLNIGYVINVTTHLPLYHYEKGLFNYKRLPATDSNKQNLRQYFEEAFEFIEEAHQCGKGLLIHCQAGVSRSATIVIAYLMKHTRMTMTDAYKFVKGKRPIISPNLNFMGQLLEFEEDLNNGVT
chain 2: B1 chain 2

Variants of: B1
Assay: GST pull-down; parent: 100; read off a plot

| Variant | percent of parent |
| --- | --- |
| chain 2 R263A | ~73 % of wild-type JNK1 |
| chain 2 V260D | ~8 % of wild-type JNK1 |
| chain 2 Q253A | ~92 % of wild-type JNK1 |
| chain 2 H230D | ~96 % of wild-type JNK1 |
| chain 2 T255A | ~30 % of wild-type JNK1 |
| chain 2 T228A | ~72 % of wild-type JNK1 |
| chain 2 D229A | ~5 % of wild-type JNK1 |
| chain 2 I197D | ~88 % of wild-type JNK1 |
| chain 2 I231D | ~37 % of wild-type JNK1 |

Variants of: B2
Assay: GST pull-down; parent: 100; read off a plot

| Variant | percent of parent |
| --- | --- |
| chain 2 T255A | ~43 % of wild-type JNK1 |
| chain 2 R263A | ~98 % of wild-type JNK1 |
| chain 2 I231D | ~28 % of wild-type JNK1 |
| chain 2 H230D | ~98 % of wild-type JNK1 |
| chain 2 Q253A | ~67 % of wild-type JNK1 |
| chain 2 I197D | ~49 % of wild-type JNK1 |
| chain 2 T228A | ~88 % of wild-type JNK1 |

From paper PMC4802042 (2016)
